In the supplement of paper PMC10065799, “High-throughput profiling of sequence recognition by tyrosine kinases and SH2 domains using bacterial peptide display” (eLife, 2023):

Key:
[1] = target: c-Src SH2; assay: SH2 binding enrichment of the phosphorylated peptide, bacterial display (enrichment ratio); higher = better substrate or ligand; peptides without Tyr show the background
[2] = target: SHP2-C SH2; assay: as above
[3] = target: Grb2 SH2 (UniProt P62993); assay: as above
[4] = target: EPHB1 (UniProt P54762); assay: phosphorylation enrichment, bacterial display (enrichment ratio); higher = better substrate or ligand; peptides without Tyr show the background
[5] = target: FGFR1 (UniProt P11362); assay: as above
[6] = system: Fer (mouse); assay: as above
[7] = target: FGFR3 (UniProt P22607); assay: as above
[8] = target: Fes (UniProt P07332); assay: as above
[9] = target: Hck (UniProt P08631); assay: as above
[10] = target: EPHB2 (UniProt P29323); assay: as above
[11] = system: c-Src; assay: as above
[12] = target: Jak2 (UniProt O60674); assay: as above
[13] = system: AncSZ; assay: as above
[14] = target: MERTK (UniProt Q12866); assay: as above
[15] = target: Fyn (UniProt P06241); assay: as above
[16] = system: c-Abl (mouse); assay: as above
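Wherever SH2 binding enrichment of the phosphorylated peptide, bacterial display is given: peptide library displayed on the E. coli surface as eCPX fusions, selected cells deep-sequenced, score is each peptide's frequency after selection divided by its frequency in the input.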
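Wherever phosphorylation enrichment, bacterial display is given: 11-residue human phosphosite peptides and single-mutation variants displayed on the E. coli surface, counted by deep sequencing, each peptide's frequency after selection divided by its frequency in the unselected input library; frequency after pTyr selection over input frequency; kinase dosed for 20-30% of maximal phosphorylation in three min.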

Sequence of FGFR3 (P22607 whole entry, looked up): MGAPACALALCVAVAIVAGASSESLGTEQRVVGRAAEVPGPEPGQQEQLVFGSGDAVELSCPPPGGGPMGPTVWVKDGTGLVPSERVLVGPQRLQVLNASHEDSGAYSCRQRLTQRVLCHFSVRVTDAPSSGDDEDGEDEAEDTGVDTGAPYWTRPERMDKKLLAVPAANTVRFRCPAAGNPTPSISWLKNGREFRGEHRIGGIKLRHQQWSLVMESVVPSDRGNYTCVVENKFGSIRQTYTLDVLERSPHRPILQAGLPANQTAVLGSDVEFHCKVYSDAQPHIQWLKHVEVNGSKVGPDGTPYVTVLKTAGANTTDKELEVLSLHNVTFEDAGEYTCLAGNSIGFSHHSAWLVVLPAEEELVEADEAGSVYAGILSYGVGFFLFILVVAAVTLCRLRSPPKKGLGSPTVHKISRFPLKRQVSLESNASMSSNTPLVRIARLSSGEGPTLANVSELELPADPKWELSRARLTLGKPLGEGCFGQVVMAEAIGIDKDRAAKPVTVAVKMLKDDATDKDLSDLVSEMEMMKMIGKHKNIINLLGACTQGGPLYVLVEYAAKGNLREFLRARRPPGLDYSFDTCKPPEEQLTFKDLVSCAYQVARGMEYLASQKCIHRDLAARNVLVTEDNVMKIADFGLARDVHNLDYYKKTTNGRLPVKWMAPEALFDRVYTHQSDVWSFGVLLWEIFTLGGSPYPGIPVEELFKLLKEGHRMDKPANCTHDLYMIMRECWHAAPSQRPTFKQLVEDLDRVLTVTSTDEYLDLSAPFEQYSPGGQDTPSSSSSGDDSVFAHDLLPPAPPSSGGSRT
Sequence of Jak2 (O60674 whole entry, looked up): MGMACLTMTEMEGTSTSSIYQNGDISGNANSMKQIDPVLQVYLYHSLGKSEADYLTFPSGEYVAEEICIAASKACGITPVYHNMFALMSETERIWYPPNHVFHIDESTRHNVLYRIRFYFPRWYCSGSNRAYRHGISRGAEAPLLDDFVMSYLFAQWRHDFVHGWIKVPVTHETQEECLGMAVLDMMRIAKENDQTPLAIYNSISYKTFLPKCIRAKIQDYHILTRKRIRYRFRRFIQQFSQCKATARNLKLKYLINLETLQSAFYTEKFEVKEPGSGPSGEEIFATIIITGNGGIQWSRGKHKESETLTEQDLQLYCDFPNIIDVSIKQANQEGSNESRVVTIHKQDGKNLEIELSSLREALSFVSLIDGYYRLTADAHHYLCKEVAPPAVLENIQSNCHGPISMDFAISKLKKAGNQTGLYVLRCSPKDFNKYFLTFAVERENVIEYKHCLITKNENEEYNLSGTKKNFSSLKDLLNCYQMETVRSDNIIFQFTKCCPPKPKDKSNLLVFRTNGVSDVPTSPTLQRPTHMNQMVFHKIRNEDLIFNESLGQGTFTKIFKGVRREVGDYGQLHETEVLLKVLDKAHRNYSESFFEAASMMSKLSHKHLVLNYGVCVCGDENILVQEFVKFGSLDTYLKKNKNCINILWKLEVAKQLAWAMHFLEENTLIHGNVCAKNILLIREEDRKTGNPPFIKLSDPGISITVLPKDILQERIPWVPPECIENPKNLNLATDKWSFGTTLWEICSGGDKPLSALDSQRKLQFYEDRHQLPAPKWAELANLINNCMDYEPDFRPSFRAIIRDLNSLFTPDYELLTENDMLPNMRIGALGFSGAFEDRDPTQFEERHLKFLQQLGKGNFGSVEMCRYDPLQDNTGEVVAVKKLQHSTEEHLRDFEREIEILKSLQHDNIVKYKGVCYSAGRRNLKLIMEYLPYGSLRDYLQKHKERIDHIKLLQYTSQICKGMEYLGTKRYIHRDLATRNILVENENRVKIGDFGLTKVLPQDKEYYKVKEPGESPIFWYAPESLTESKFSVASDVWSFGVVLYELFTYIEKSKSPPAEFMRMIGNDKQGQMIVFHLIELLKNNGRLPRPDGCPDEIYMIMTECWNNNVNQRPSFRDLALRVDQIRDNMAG
Sequence of Hck (P08631 whole entry, looked up): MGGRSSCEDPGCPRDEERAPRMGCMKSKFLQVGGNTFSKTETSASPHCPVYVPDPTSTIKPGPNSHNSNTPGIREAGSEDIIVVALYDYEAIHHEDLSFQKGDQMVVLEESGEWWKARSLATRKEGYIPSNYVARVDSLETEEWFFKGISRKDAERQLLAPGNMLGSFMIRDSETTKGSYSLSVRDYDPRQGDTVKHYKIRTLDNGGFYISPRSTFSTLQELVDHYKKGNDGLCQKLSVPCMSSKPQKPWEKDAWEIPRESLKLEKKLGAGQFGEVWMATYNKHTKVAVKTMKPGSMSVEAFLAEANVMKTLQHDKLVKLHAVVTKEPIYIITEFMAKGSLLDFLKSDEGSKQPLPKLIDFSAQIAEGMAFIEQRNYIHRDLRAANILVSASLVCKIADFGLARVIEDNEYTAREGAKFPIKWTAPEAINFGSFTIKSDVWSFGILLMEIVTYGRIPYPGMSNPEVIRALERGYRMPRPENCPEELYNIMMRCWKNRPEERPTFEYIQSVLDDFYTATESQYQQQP
Sequence of MERTK (Q12866 whole entry, looked up): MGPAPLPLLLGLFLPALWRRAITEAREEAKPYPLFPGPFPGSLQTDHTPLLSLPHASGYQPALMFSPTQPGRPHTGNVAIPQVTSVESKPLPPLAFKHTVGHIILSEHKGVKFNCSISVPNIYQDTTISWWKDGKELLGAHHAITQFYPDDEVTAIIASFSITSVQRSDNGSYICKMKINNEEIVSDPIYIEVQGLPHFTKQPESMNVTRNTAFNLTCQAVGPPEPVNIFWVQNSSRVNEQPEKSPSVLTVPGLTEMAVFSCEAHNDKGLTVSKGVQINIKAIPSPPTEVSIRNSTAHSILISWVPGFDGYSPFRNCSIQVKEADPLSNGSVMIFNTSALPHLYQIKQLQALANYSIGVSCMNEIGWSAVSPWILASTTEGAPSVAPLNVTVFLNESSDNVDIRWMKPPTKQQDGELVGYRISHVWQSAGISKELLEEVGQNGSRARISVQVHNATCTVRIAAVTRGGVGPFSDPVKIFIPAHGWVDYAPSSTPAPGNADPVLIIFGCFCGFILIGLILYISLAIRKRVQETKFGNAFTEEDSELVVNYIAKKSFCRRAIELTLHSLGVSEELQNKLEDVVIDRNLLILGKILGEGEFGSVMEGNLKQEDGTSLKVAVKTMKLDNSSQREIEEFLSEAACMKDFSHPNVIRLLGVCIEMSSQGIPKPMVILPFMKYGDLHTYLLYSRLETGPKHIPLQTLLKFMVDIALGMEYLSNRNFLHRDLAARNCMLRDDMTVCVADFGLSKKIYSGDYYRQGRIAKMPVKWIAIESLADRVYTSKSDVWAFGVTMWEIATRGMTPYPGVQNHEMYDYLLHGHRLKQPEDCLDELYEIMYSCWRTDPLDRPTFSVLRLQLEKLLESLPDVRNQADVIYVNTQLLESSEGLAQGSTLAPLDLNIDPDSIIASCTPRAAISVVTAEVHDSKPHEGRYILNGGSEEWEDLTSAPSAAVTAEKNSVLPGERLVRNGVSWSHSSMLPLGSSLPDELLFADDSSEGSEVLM
Sequence of FGFR1 (P11362 whole entry, looked up): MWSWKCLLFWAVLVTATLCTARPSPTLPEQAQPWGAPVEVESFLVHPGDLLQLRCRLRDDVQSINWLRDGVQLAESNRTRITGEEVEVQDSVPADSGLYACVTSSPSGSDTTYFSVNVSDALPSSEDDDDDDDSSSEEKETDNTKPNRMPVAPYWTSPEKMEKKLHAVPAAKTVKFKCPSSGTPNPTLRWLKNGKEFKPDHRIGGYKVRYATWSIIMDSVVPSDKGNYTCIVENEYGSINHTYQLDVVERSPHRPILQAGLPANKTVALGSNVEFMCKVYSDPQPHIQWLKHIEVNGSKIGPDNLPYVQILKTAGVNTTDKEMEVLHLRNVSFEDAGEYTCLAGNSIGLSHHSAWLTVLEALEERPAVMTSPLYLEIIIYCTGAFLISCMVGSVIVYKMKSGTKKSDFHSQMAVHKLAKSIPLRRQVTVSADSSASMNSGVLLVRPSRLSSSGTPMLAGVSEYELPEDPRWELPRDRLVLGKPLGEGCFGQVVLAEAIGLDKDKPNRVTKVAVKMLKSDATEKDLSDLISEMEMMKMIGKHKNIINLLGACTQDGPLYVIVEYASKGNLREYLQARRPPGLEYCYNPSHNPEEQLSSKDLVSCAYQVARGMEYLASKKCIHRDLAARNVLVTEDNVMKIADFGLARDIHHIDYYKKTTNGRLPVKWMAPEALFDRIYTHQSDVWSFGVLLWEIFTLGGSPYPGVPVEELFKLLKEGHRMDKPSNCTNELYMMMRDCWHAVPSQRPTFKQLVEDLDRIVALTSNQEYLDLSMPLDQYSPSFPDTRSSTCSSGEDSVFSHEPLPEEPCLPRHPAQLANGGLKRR
Sequence of Fyn (P06241 whole entry, looked up): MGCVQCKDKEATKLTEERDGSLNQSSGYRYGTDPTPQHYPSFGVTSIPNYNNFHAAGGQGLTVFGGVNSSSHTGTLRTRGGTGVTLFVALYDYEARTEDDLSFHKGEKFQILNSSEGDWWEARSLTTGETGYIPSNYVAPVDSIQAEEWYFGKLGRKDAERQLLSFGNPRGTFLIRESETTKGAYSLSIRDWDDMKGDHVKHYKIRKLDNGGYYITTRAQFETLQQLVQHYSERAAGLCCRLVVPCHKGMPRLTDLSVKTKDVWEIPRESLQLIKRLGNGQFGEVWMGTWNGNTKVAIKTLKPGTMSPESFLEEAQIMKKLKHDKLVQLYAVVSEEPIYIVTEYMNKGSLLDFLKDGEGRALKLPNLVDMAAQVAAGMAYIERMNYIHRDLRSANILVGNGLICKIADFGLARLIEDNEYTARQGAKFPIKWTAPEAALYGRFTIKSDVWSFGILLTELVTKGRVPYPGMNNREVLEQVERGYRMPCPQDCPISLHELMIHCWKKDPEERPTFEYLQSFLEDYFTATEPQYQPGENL

| SH2 binding enrichment [1] | SH2 binding enrichment [2] | SH2 binding enrichment [3] | Sequence | phosphorylation enrichment [4] | phosphorylation enrichment [5] | phosphorylation enrichment [6] | phosphorylation enrichment [7] | phosphorylation enrichment [8] | phosphorylation enrichment [9] | phosphorylation enrichment [10] | phosphorylation enrichment [11] | phosphorylation enrichment [12] | phosphorylation enrichment [13] | phosphorylation enrichment [14] | phosphorylation enrichment [15] | phosphorylation enrichment [16] |
| --- | --- | --- | --- | --- | --- | --- | --- | --- | --- | --- | --- | --- | --- | --- | --- | --- |
| 7 | 0.617 | 0.832 | AADGRYEVLFL [SEMA3F_Y478] | 0.731 | 0.62 | 2.97 | 0.822 | 1.01 | 0.792 | 0.683 | 0.489 | 1.02 | 1.07 | 0.749 | 0.447 | 0.624 |
| 0.946 | 1.42 | 1.34 | AALVQYFMEHH [PTPN11_Y80_E76A_YF] | 0.623 | 0.573 | 0.476 | 0.727 | 1.05 | 0.519 | 0.541 | 0.441 | 0.772 | 0.798 | 0.401 | 0.439 | 0.665 |
| 0.481 | 0.915 | 1.35 | AAVLNYKAWRD [GRIN2A_Y737_G740W] | 0.408 | 0.534 | 0.338 | 0.462 | 0.656 | 0.436 | 0.276 | 0.396 | 0.646 | 0.839 | 0.386 | 0.35 | 0.808 |
| 0.513 | 0.717 | 1.25 | ADCRFYTFPQM [GAMT_Y223_A224T_YF] | 1.07 | 0.584 | 1.99 | 0.895 | 1.48 | 0.534 | 0.813 | 1.24 | 1.2 | 1.88 | 5.08 | 0.811 | 0.784 |
| 0.32 | 0.594 | 0.786 | ADKSAYLMGVN [MYH7_Y386_L390V] | 0.418 | 0.399 | 0.396 | 0.466 | 0.661 | 0.401 | 0.466 | 0.41 | 0.58 | 0.574 | 0.338 | 0.405 | 0.572 |
| 0.517 | 1.14 | 0.859 | ADRLEYSRTGL [MMUT_Y287_G284R] | 0.309 | 0.764 | 0.338 | 0.651 | 0.599 | 0.346 | 0.722 | 0.459 | 1.25 | 0.66 | 0.728 | 0.408 | 0.498 |
| 0.667 | 1.41 | 0.966 | ADSLRYIFPKL [EIF2B3_Y92_YF] | 0.43 | 0.398 | 0.31 | 0.497 | 0.681 | 0.413 | 0.381 | 0.457 | 0.64 | 0.552 | 0.459 | 0.474 | 0.566 |
| 0.83 | 0.956 | 1.05 | AEEPIYIIVPA [BMXtide_2014] | 18.5 | 13.9 | 11.1 | 12.1 | 2.98 | 7.96 | 24.2 | 8.8 | 2.47 | 4.75 | 9.02 | 10.1 | 8.02 |
| 0.625 | 0.632 | 0.807 | AELVRYFMEHH [PTPN11_Y80_Q79R_YF] | 0.458 | 0.454 | 0.427 | 0.471 | 0.883 | 0.46 | 0.526 | 0.433 | 0.621 | 0.653 | 0.421 | 0.414 | 0.493 |
| 0.421 | 0.54 | 0.786 | AESPEHVHMFT [FAM111A_Y511_Y511H_YF] | 0.566 | 0.433 | 0.431 | 0.614 | 1.01 | 0.447 | 0.569 | 0.36 | 0.754 | 0.746 | 0.416 | 0.446 | 0.661 |
| 0.419 | 0.696 | 0.62 | AEYGLYGAMVW [VSX2_Y222_R227W] | 1.33 | 0.521 | 4.58 | 0.86 | 1.37 | 5.32 | 4 | 4.49 | 1.25 | 1.45 | 2.66 | 6.22 | 1.1 |
| 0.495 | 0.59 | 0.865 | AFDNLYFWDQD [ERBB2_Y1221_YF] | 1.42 | 6.87 | 1.68 | 6.95 | 1.93 | 4.26 | 1.25 | 5.12 | 1.56 | 2.1 | 5.13 | 5.76 | 0.981 |
| 0.74 | 0.569 | 0.856 | AFEQQYSPIPK [NOX1_Y373_R378K] | 0.766 | 0.744 | 0.435 | 0.575 | 0.741 | 3.14 | 0.411 | 0.802 | 0.534 | 0.772 | 0.874 | 0.514 | 0.612 |
| 0.553 | 1.07 | 0.947 | AFLEDYFTSTK [SRC_Y522_E527K] | 0.378 | 0.639 | 0.356 | 0.774 | 0.97 | 0.52 | 0.492 | 0.463 | 1.26 | 1.1 | 0.504 | 0.474 | 0.591 |
| 0.658 | 1.01 | 0.922 | AFLGEYIPTVF [RAC2_Y32_P29L] | 0.733 | 0.826 | 0.568 | 0.967 | 1.43 | 0.516 | 0.499 | 0.664 | 1.49 | 1.31 | 0.638 | 0.593 | 1.1 |
| 0.489 | 0.641 | 0.849 | AGGTRYRFVSQ [UCN3_Y95_R91G_YF] | 0.397 | 0.461 | 0.386 | 0.377 | 0.43 | 0.338 | 0.272 | 0.393 | 0.465 | 0.426 | 0.363 | 0.536 | 0.576 |
